In patent US7829301B2, “Screening assays for binding antagonists of the AMD-associated variant of factor H (H384)” (The University of Manchester, priority 2006, dated 2010):

Assays:
necrotic Jurkat T cells = assay: Flow cytometry binding to necrotic cells; format: cell-based; details: 10 μg/ml
Protocol: Jurkat T cells (ATCC), were grown in RPMI, supplemented with glutamine, penicillin, streptomycin and 10% (v/v) heat inactivated FCS (all from Invitrogen). Necrosis was induced by heat whereby the cells were brought to a concentration of 10^6 per ml and incubated at 56° C. for 30 minutes in RPMI 1640 without FCS (Trouw et al. (2005) J. Exp. Med. 201, 1937-1948).
Binding of FHCCP6-8 variants to necrotic cells was analyzed using flow cytometry. Protein binding was analyzed by incubating cells with varying concentrations of the FHCCP6-8 variants (0 to 10 μg/ml) in FACS binding buffer (10 mM HEPES, 150 mM NaCl, 5 mM KCl, 1 mM MgCl2, 1.8 mM CaCl2), with shaking for 30 minutes at room temperature. After washing twice in the same buffer, cells were stained with goat anti-FH polyclonal antibodies (Quidel) for 30 minutes at room temperature. This was followed by matched FITC-labelled secondary antibodies (Dako).

[1] = Microtitre plate assay: binding to HSI and HSII immobilized on EpranEx plate; parameters: species or system pig; details: HS immobilized on allylamine-coated EpranEx plate
Excerpt: The heparin/HS/DS-binding activities of the FHCCP6-8(H384) and FHCCP6-8(Y384) variants (using biotinylated-FHCCP6-8 constructs), and in some cases full-length Factor H (detected with an antibody), were compared using an assay where the glycosaminoglycans (GAGs) were immobilized on allylamine-coated EpranEx plates (Mahoney et al (2004) Anal. Biochem. 330, 123-129), kindly supplied by Plasso Technology Ltd., Sheffield, UK. Previously, we have shown that heparin/HS can bind non-covalently to surfaces plasma polymerized with allylamine in such a way that these GAGs can still associate with a wide-range of proteins (Mahoney et al. (2005) J. Biol. Chem. 280, 27044-27055; Mahoney et al. (2004) ibid).
(§1) The following GAG preparations were analyzed: unfractionated heparins corresponding to the 2nd, 4th and 5th International Standards (denoted here as 2IS, 4IS and 5IS, respectively (Mulloy et al. (2000) Thromb. Haemost. 52, 148-153)); enoxaparin, dalteparin and LMr heparin from Sigma (Cat. No. H3400); selectively desulfated heparins prepared from 2IS heparin as described in Mulloy et al. (1994) Carbohydr. […]
(§2) In the case of the biotinylated FHCCP6-8(H384) and FHCCP6-8(Y384) constructs, bound material was detected by adding 200 μl/well of a 1:10,000 dilution of ExtrAvidin alkaline phosphatase (Sigma, Cat. No. E-2636) for 30 minutes. […]

[2] = Microtitre plate assay: biotinylated proteins binding to unfractionated heparin immobilized on EpranEx plates
Protocol: The heparin/HS/DS-binding activities of the FHCCP6-8(H384) and FHCCP6-8(Y384) variants (using biotinylated-FHCCP6-8 constructs), and in some cases full-length Factor H (detected with an antibody), were compared using an assay where the glycosaminoglycans (GAGs) were immobilized on allylamine-coated EpranEx plates (Mahoney et al (2004) Anal. Biochem. 330, 123-129), kindly supplied by Plasso Technology Ltd., Sheffield, UK. […]
as §1, §2
In these plate assays all data points were determined in quadruplicate from each of two independent experiments.

B1: FHCCP6-8(H384): recombinant protein of Factor H CCPs 6-8, H384 allotype, with N-terminal non-authentic glycine (SEQ ID NO: 1) (protein, listed as Homo sapiens)
chain: MGTLKPCDYPDIKHGGLYHENMRRPYFPVAVGKYYSYYCDEHFETPSGSYWDHIHCTQDGWSPAVPCLRKCYFPYLENGYNQNHGRKFVQGKSIDVACHPGYALPKAQTTVTCMENGWSPTPRCIRVKTCSKSSIDIENGFISESQYTYALKEKAKYQCKLGYVTADGETSGSITCGKDGWSAQPTCI
modifications: VARIANT (1)...(188) Protein sequence of the FHCCP6-8 (H384) construct
Q: For B1, which “binding to necrotic cells relative to the other variant” value (necrotic Jurkat T cells) is on record?
A: binds necrotic cells better

Q: And the “binding to HS preparations HSI and HSII” value [1]?
A: lack of activity

Q: And the “binding to immobilized unfractionated heparins compared to FHCCP6-8(Y384)” value ([2]; 2IS, 4IS and 5IS)?
A: more of the FHCCP6-8(H384) protein bound

B2: FHCCP6-8(Y384): recombinant Factor H CCPs 6-8, Y384 variant obtained by site-directed mutagenesis (SEQ ID NO: 3) (protein, listed as Homo sapiens)
chain: MGTLKPCDYPDIKHGGLYHENMRRPYFPVAVGKYYSYYCDEHFETPSGSYWDHIHCTQDGWSPAVPCLRKCYFPYLENGYNQNYGRKFVQGKSIDVACHPGYALPKAQTTVTCMENGWSPTPRCIRVKTCSKSSIDIENGFISESQYTYALKEKAKYQCKLGYVTADGETSGSITCGKDGWSAQPTCI
modifications: VARIANT (1)...(188) FHCCP6-8 (Y384 allotype of mature Factor H)
Q: For B2, which “binding to HS preparations HSI and HSII” value [1] is on record?
A: lack of activity

Q: And the “binding to 4IS heparin relative to FHCCP6-8(H384)” value ([2]; heparin bound to allylamine-coated surface, biotinylated proteins)?
A: bind less well
